Reference: JP2012055312A

Target: ビオチン−IL−6 (UniProt P05231)
Experiment: Luminex-based assay of IL-6 binding to IL-6 receptor (solid-phase sIL-6R/gp80)

Sequence of UniProt P05231 (P05231 30-212 limits assumed): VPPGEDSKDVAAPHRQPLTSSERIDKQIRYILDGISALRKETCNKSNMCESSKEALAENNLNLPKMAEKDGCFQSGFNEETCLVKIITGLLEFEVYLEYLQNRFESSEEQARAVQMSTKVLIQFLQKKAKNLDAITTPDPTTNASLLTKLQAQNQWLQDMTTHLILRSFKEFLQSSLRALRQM

percent inhibition of IL-6 binding to IL-6 receptor: 100%
B1: キメラCLB8 (antibody, V domains shown)
VH: EVQLVESGGKLLKPGGSLKLSCAASGFTFSSFAMSWFRQSPEKRLEWVAEISSGGSYTYYPDTVTGRFTISRDNAKNTLYLEMSSLRSEDTAMYYCARGLWGYYALDYWGQGTSVTVSS
VL: QIVLIQSPAIMSASPGEKVTMTCSASSSVSYMYWYQQKPGSSPRLLIYDTSNLASGVPVRFSGSGSGTSYSLTISRMEAEDAATYYCQQWSGYPYTFGGGTKLEIK
